US20120251444A1

Biological target: LRP1 on wild-type CHO-K1 cells
Assay: cell-based or functional assay

mini-RAPc (Hep1) combined with equimolar streptavidin-saporin conjugate (ZAP) (from UniProt P22629 37-163)
reduction of viable cell number (MTT assay, 100 nM, 48 hours): 40%
